Laboratory results taken from US20220251595A1, “ENGINEERED ATRLP23 PATTERN RECOGNITION RECEPTORS AND METHODS OF USE” (priority 2019, published 2022).

Tested on: corn protoplasts
Experiment: Calcium burst in transiently transfected corn protoplasts, apoaequorin luminescence reporter

B1: AtRLP23-AtPEPR1-3×FLAG: AtRLP23 apoplastic and eJM domains, AtPEPR1 TM and kinase domains, 3×FLAG; SEQ ID NO: 572, 573 (protein)
chain: MSKALLHLHFLSLFLLCCVCHSSIFTLNFHFTGIVACRPHQIQAFTKFTNEFDTRGCNNSDTFNGVWCDNSTGAVAVLQLRKCLSGTLKSNSSLFGFHQLRYVDLQNNNLTSSSLPSGFGNLKRLEGLFLSSNGFLGQVPSSFSNLTMLAQLDLSYNKLTGSFPLVRGLRKLIVLDLSYNHFSGTLNPNSSLFELHQLRYLNLAFNNFSSSLPSKFGNLHRLENLILSSNGFSGQVPSTISNLTRLTKLYLDQNKLTSSFPLVQNLTNLYELDLSYNKFFGVIPSSLLTLPFLAHLALRENNLAGSVEVSNSSTSSRLEIMYLGSNHFEGQILEPISKLINLKHLDLSFLNTSYPIDLKLFSSLKSLRSLDLSGNSISSASLSSDSYIPLTLEMLTLRHCDINEFPNILKTLKELVYIDISNNRMKGKIPEWLWSLPLLQSVTLGNNYFTGFQGSAEILVNSSVLLLYLDSNNFEGALPDLPLSIKGFGVASNSFTSEIPLSICNRSSLAAIDLSYNNFTGPIPPCLRNLELVYLRNNNLEGSIPDALCDGASLRTLDVSHNRLTGKLPRSFVNCSSLKFLSVINNRIEDTFPFWLKALPNLQVLTLRSNRFYGPISPPHQGPLGFPELRIFEISDNKFTGSLPPNYFVNWKASSRTMNQDGGLYMVYEEKLFDEGGYGYTDALDLQYKGLHMEQAKALTSYAAIDFSGNRLEGQIPESIGLLKALIAVNISNNAFTGHIPLSMANLENLESLDMSRNQLSGTIPNGLGSISFLAYINVSHNQLTGEIPQGTQITGQSKSSFEGNAGLCGLPLKESCFGTGAPPMYHQKQEDKEEEEEEEEEEEEVLNGRIVLIAVLSSLLVLVVVLALVFICLRRRKGRPEKDAYVFTQEEGPSLLLNKVLAATDNLNEKYTIGRGAHGIVYRASLGSGKVYAVKRLVFASHIRANQSMMREIDTIGKVRHRNLIKLEGFWLRKDDGLMLYRYMPKGSLYDVLHGVSPKENVLDWSARYNVALGVAHGLAYLHYDCHPPIVHRDIKPENILMDSDLEPHIGDFGLARLLDDSTVSTATVTGTTGYIAPENAFKTVRGRESDVYSYGVVLLELVTRKRAVDKSFPESTDIVSWVRSALSSSNNNVEDMVTTIVDPILVDELLDSSLREQVMQVTELALSCTQQDPAMRPTMRDAVKLLEDVKHLARSCSSDSVRSDYKDHDGDYKDHDLDAAAADYKDDDDK
modifications: Fusion protein
B1 was tested, and the “Ca^2+ burst in response to all tested NLP peptides” value (Example 6, FIG. 8, CgNLP24b, FgNLP24c, FvNLP24a, SmNLP24) was “Ca^2+ burst” and the “increase in Ca^2+ compared to control buffer treatment” value (FIG. 8, all peptides tested) was “statistically significant”.
